Measurements: the supplement of paper PMC9233669
This sample holds only a part of the variants without activity.

Experiments:
[1] = tested on: biotinyl-Leu-oxazolone; assay: self-aminoacylation, catalytic enhancement (BLO) (fold over background); higher = more active; k-Seq, kA / k0A0; sequences stand for … in GGGAAUGGAUCCACAUCUACGAAUUC…UUCACUGCAGACUUGACGAAGCUG
Method in brief: (§1)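 Mutagenized RNA pools with a 21-nt variable region (0.43 μM) were reacted with each biotinyl-aminoacyl-oxazolone at 2–1250 μM for 90 minutes at room temperature, in 50 μL HEPES/NaCl/KCl/MgCl2/CaCl2 buffer containing 5% acetonitrile at pH 6.9–7.0. RNA captured on streptavidin was quantified by triplicate qPCR and by Illumina sequencing. The fraction reacted for each sequence was fit to a pseudo-first-order model with bootstrapping, and catalytic enhancement is the median kA divided by the uncatalyzed rate, taken as the low-activity peak of a bimodal Gaussian fit.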

[2] = tested on: biotinyl-Val-oxazolone; assay: self-aminoacylation, catalytic enhancement (BVO) (fold over background); higher = more active; k-Seq, kA / k0A0; sequences stand for … in GGGAAUGGAUCCACAUCUACGAAUUC…UUCACUGCAGACUUGACGAAGCUG
Method in brief: as §1

[3] = tested on: biotinyl-Phe-oxazolone; assay: self-aminoacylation, catalytic enhancement (BFO) (fold over background); higher = more active; k-Seq, kA / k0A0; sequences stand for … in GGGAAUGGAUCCACAUCUACGAAUUC…UUCACUGCAGACUUGACGAAGCUG
Method in brief: as §1

[4] = tested on: biotinyl-Trp-oxazolone; assay: self-aminoacylation, catalytic enhancement (BWO) (fold over background); higher = more active; k-Seq, kA / k0A0; sequences stand for … in GGGAAUGGAUCCACAUCUACGAAUUC…UUCACUGCAGACUUGACGAAGCUG
Method in brief: as §1

[5] = tested on: biotinyl-Ile-oxazolone; assay: self-aminoacylation, catalytic enhancement (BIO) (fold over background); higher = more active; k-Seq, kA / k0A0; sequences stand for … in GGGAAUGGAUCCACAUCUACGAAUUC…UUCACUGCAGACUUGACGAAGCUG
Method in brief: as §1

[6] = tested on: biotinyl-Met-oxazolone; assay: self-aminoacylation, catalytic enhancement (BMO) (fold over background); higher = more active; k-Seq, kA / k0A0; sequences stand for … in GGGAAUGGAUCCACAUCUACGAAUUC…UUCACUGCAGACUUGACGAAGCUG
Method in brief: as §1

Row | Sequence | self-aminoacylation [1] | self-aminoacylation [2] | self-aminoacylation [3] | self-aminoacylation [4] | self-aminoacylation [5] | self-aminoacylation [6]
1 | AAGUUUGCCAAUGGUCGCAAG [Fam3.1 aminoacylation ribozyme variant] | 1 | 0.852 | 0.499 | 1.01 | 0.987 | 1.02
2 | AAGUUUGCCAGUAGUCGCAAG [Fam3.1 aminoacylation ribozyme variant] | 1.02 | 0.932 | 0.763 | 1.21 | 1.04 | 0.793
3 | AAGUUUGCGAAUAGUCCCAAG [Fam3.1 aminoacylation ribozyme variant] | 0.951 | 0.844 | 1.03 | 0.863 | 1.06 | 1.14
4 | AAGUUUGCGAAUAGUUGCAAG [Fam3.1 aminoacylation ribozyme variant] | 0.661 | 0.803 | 0.975 | 1.16 | 0.915 | 1.2
5 | AAGUUUGCGAAUGGUCGCAAG [Fam3.1 aminoacylation ribozyme variant] | 0.728 | 1.11 | 5.78 | 1.47 | 0.908 | 0.97
6 | AAGUUUGCUAAAAGUCGCAAA [Fam3.1 aminoacylation ribozyme variant] | 1.67 | 1.59 | 1.91 | 1.32 | 1.7 | 1.87
7 | AAGUUUGCUAAAAGUCGCAAC [Fam3.1 aminoacylation ribozyme variant] | 1.25 | 0.948 | 0.796 | 1.01 | 1.08 | 1.1
8 | AAGUUUGCUAAAAGUCGCAGG [Fam3.1 aminoacylation ribozyme variant] | 1.07 | 1.12 | 1.77 | 1.3 | 1.26 | 1.37
9 | AAGUUUGCUAAAAGUCGGAAG [Fam3.1 aminoacylation ribozyme variant] | 0.778 | 0.924 | 5.57 | 1.22 | 0.814 | 0.755
10 | AAGUUUGCUAAAUGUCGCAAG [Fam3.1 aminoacylation ribozyme variant] | 1.1 | 0.837 | 0.96 | 0.74 | 1 | 0.876
11 | AAGUUUGCUAACAGUCACAAG [Fam3.1 aminoacylation ribozyme variant] | 1.12 | 0.942 | 2.73 | 1.06 | 0.92 | 1.04
12 | AAGUUUGCUAACAGUCGAAAG [Fam3.1 aminoacylation ribozyme variant] | 0.689 | 0.848 | 5.73 | 2 | 0.878 | 0.838
13 | AAGUUUGCUAACAGUCGCAAG [Fam3.1 aminoacylation ribozyme variant] | 0.961 | 1.06 | 21.1 | 5.51 | 1.18 | 1.29
14 | AAGUUUGCUAACAGUCGCCAG [Fam3.1 aminoacylation ribozyme variant] | 1.17 | 1.33 | 1.8 | 2.07 | 1.61 | 1.45
15 | AAGUUUGCUAACAGUCGCGAG [Fam3.1 aminoacylation ribozyme variant] | 1.24 | 1.12 | 1.64 | 2.46 | 1.02 | 0.591
16 | AAGUUUGCUAAGAGUAGCAAG [Fam3.1 aminoacylation ribozyme variant] | 1.21 | 0.727 | 1.3 | 1.17 | 0.857 | 1.1
17 | AAGUUUGCUAAGAGUCGCAAA [Fam3.1 aminoacylation ribozyme variant] | 0.88 | 0.889 | 2.02 | 1.12 | 1.01 | 1.25
18 | AAGUUUGCUAAGAGUCGUAAG [Fam3.1 aminoacylation ribozyme variant] | 0.535 | 0.757 | 7.41 | 2.31 | 0.61 | 0.708
19 | AAGUUUGCUAAUAAUCACAAG [Fam3.1 aminoacylation ribozyme variant] | 1.08 | 0.832 | 1.25 | 1.1 | 1.08 | 1.05
20 | AAGUUUGCUAAUAAUCGCAAG [Fam3.1 aminoacylation ribozyme variant] | 0.602 | 0.746 | 1.6 | 0.876 | 0.735 | 0.637
21 | AAGUUUGCUAAUAAUCGCGAG [Fam3.1 aminoacylation ribozyme variant] | 0.744 | 0.808 | 1.24 | 1.47 | 0.983 | 0.863
22 | AAGUUUGCUAAUACUCGCCAG [Fam3.1 aminoacylation ribozyme variant] | 0.655 | 0.836 | 0.993 | 0.773 | 0.916 | 0.629

Row | Sequence | self-aminoacylation [1] | self-aminoacylation [2] | self-aminoacylation [3] | self-aminoacylation [4] | self-aminoacylation [5] | self-aminoacylation [6]
23 | AAGUUUGCUAAUACUUGCAAG [Fam3.1 aminoacylation ribozyme variant] | 0.586 | 0.625 | 0.999 | 0.685 | 0.743 | 0.582
24 | AAGUUUGCUAAUAGACGCAAG [Fam3.1 aminoacylation ribozyme variant] | 0.459 | 0.587 | 0.87 | 0.574 | 0.526 | 0.477
25 | AAGUUUGCUAAUAGACGCACG [Fam3.1 aminoacylation ribozyme variant] | 0.365 | 0.528 | 0.811 | 0.572 | 0.543 | 0.472
26 | AAGUUUGCUAAUAGACGCUAG [Fam3.1 aminoacylation ribozyme variant] | 0.495 | 0.654 | 0.777 | 0.501 | 0.547 | 0.754
27 | AAGUUUGCUAAUAGCAGCAAG [Fam3.1 aminoacylation ribozyme variant] | 0.646 | 0.851 | 1.12 | 0.754 | 0.793 | 0.683
28 | AAGUUUGCUAAUAGCCACAAG [Fam3.1 aminoacylation ribozyme variant] | 0.833 | 0.827 | 1.59 | 0.834 | 0.821 | 0.55
29 | AAGUUUGCUAAUAGCCGCACG [Fam3.1 aminoacylation ribozyme variant] | 1.32 | 1.21 | 1.41 | 2.52 | 1.31 | 1.08
30 | AAGUUUGCUAAUAGGCGCAAU [Fam3.1 aminoacylation ribozyme variant] | 1.46 | 1.58 | 1.52 | 0.968 | 1.6 | 1.71
31 | AAGUUUGCUAAUAGGCGCACG [Fam3.1 aminoacylation ribozyme variant] | 0.865 | 0.833 | 2.42 | 0.485 | 0.981 | 0.568
32 | AAGUUUGCUAAUAGGCGGAAG [Fam3.1 aminoacylation ribozyme variant] | 0.675 | 0.89 | 0.916 | 0.922 | 0.806 | 0.721
33 | AAGUUUGCUAAUAGUACCAAG [Fam3.1 aminoacylation ribozyme variant] | 0.791 | 1.15 | 1.41 | 0.838 | 1.14 | 1.22
34 | AAGUUUGCUAAUAGUAGCCAG [Fam3.1 aminoacylation ribozyme variant] | 0.78 | 0.769 | 1.04 | 2.24 | 0.868 | 0.77
35 | AAGUUUGCUAAUAGUAGCGAG [Fam3.1 aminoacylation ribozyme variant] | 0.962 | 1 | 1.65 | 1.14 | 1.21 | 0.995
36 | AAGUUUGCUAAUAGUCACAAA [Fam3.1 aminoacylation ribozyme variant] | 1.22 | 1.09 | 1.34 | 1.15 | 1.21 | 1.32
37 | AAGUUUGCUAAUAGUCACAAC [Fam3.1 aminoacylation ribozyme variant] | 0.637 | 0.621 | 1.47 | 0.593 | 0.673 | 0.6
38 | AAGUUUGCUAAUAGUCCAAAG [Fam3.1 aminoacylation ribozyme variant] | 0.966 | 1.18 | 3.72 | 1.75 | 1.21 | 1.34
39 | AAGUUUGCUAAUAGUCCGAAG [Fam3.1 aminoacylation ribozyme variant] | 0.863 | 1.02 | 4.75 | 1.89 | 1.1 | 1.02
40 | AAGUUUGCUAAUAGUCGCAAG [Fam3.1 aminoacylation ribozyme variant] | 1.01 | 1.15 | 32 | 7.99 | 1.33 | 1.47
41 | AAGUUUGCUAAUAGUCGCACC [Fam3.1 aminoacylation ribozyme variant] | 0.718 | 0.756 | 1.29 | 0.849 | 0.81 | 0.569
42 | AAGUUUGCUAAUAGUCGCAUU [Fam3.1 aminoacylation ribozyme variant] | 1.27 | 1.22 | 1.63 | 1.29 | 1.37 | 1.25
43 | AAGUUUGCUAAUAGUCGCGCG [Fam3.1 aminoacylation ribozyme variant] | 4.77 | 2.94 | 20.9 | 5.74 | 3.47 | 3.95
